Assays:
[1] = target: taxol stabilized microtubules (UniProt Q6B856); assay: co-sedimentation
[2] = target: human Ska1 complex containing GFP-Ska1 (human) (UniProt Q96BD8); assay: single-molecule TIRF microscopy, intensity distribution and photobleaching steps

Chain of human Ska1 complex containing GFP-Ska1 (Q96BD8 whole entry): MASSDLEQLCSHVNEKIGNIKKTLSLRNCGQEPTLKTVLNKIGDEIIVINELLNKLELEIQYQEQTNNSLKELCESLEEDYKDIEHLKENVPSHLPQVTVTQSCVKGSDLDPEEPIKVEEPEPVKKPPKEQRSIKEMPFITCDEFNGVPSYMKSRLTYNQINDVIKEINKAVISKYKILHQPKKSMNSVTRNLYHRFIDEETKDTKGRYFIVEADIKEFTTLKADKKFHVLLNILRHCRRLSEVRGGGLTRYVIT
Chain of human Ska1 complex containing GFP-Ska1 (Q8WVK7 whole entry): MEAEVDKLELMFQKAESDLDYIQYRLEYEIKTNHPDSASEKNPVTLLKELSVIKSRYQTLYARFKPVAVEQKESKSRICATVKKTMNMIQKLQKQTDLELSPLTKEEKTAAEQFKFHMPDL
Chain of human Ska1 complex containing GFP-Ska1 (Q8IX90 whole entry): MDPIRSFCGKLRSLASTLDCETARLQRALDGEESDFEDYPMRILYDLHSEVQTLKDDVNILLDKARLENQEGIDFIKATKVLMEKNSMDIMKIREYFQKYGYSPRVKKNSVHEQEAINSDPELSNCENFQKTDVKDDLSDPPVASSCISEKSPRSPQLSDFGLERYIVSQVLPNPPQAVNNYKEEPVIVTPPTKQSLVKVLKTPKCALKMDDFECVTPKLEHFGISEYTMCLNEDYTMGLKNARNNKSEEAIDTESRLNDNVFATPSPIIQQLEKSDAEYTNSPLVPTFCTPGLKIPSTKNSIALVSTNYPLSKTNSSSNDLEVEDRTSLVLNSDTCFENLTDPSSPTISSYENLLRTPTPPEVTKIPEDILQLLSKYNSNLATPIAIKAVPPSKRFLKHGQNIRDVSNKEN
Chain of human Ska1 complex (Q96BD8 whole entry): as the sequence (Q96BD8 whole entry) above
Chain of human Ska1 complex (Q8WVK7 whole entry): as the sequence (Q8WVK7 whole entry) above
Chain of human Ska1 complex (Q8IX90 whole entry): as the sequence (Q8IX90 whole entry) above

“C. elegans Ska1 complex (from UniProt Q9XWS0 1-243)” was tested. Which Kd [1] did it give?
Its Kd is 11.3 µM.

Which Kd [1] does the source give for “human Ska1 complex (from UniProt Q96BD8 1-255; Q8WVK7 1-121; Q8IX90 1-412)” here?
Its Kd is 2.4 µM.

How did the stoichiometry N [2] turn out when “human Ska1 complex containing GFP-Ska1 (from UniProt Q96BD8 1-255; Q8WVK7 1-121; Q8IX90 1-412)” was run?
Its stoichiometry N is 2.

— article PMC3500403
